Laboratory results: patent US20230002507A1 (Novartis, published 2023)

How the values were obtained:
Human FXI zymogen = Human FXI zymogen (human, UniProt P03951 19-625); assay: cell-based or functional assay
Human FXI activated = Human FXI activated (human, UniProt P03951 19-387; P03951 388-625); assay: cell-based or functional assay
Sequence of Human FXI activated (P03951 19-387 C226S limits assumed, chain 1 of 2): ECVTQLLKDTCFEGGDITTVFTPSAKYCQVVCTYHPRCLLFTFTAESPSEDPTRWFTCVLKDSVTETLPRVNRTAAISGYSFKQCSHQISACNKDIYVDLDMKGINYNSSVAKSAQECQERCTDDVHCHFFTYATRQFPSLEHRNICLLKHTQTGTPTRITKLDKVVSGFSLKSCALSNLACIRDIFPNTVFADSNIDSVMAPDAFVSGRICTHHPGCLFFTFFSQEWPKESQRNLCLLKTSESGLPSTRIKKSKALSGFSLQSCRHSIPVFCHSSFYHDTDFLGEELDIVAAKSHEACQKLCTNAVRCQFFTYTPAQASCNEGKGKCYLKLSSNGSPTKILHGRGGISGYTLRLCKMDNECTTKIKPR
Sequence of Human FXI activated (P03951 388-625 limits assumed, chain 2 of 2): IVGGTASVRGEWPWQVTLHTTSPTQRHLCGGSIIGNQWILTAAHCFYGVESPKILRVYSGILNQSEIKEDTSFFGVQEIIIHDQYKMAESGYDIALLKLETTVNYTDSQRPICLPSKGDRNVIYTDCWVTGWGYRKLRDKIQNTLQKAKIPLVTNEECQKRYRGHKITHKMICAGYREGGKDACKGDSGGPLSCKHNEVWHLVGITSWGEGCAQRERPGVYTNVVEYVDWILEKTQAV

Sequence of Human FXI zymogen (P03951 19-625 C226S limits assumed): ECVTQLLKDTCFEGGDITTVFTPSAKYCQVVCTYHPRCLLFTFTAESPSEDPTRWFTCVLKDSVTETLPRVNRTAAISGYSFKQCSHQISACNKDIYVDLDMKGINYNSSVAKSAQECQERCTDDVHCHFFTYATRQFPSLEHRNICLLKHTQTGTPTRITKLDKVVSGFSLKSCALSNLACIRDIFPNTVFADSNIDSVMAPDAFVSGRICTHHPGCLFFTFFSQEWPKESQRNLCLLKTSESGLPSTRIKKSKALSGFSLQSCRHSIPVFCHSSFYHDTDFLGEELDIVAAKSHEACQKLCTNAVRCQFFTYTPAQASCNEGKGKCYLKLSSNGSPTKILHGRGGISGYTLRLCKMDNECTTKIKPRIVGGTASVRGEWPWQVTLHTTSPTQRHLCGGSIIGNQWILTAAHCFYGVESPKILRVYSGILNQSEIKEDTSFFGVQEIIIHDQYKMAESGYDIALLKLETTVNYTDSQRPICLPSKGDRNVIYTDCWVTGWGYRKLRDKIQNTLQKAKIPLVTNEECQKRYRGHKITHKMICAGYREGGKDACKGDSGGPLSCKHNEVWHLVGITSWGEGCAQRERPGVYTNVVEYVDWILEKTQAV

B1: NOV1401-IgG (antibody, V domains shown)
VH: QVQLLESGGGLVQPGGSLRLSCAASGFTFSTAAMSWVRQAPGKGLEWVSGISGSGSSTYYADSVKGRFTISRDNSKNTLYLQMNSLRAEDTAVYYCARELSYLYSGYYFDYWGQGTLVTVSS
VL: QSVLTQPPSASGTPGQRVTISCSGSSSNIGSNDVSWYQQLPGTAPKLLIYKNYNRPSGVPDRFSGSKSGTSASLAISGLQSEDEADYYCSAWDQRQFDVVFGGGTKLTVLG
Human FXI zymogen
  IC50, thrombin generation assay (TGA) in pooled human plasma: 24 nM
Human FXI activated
  IC50, inhibition of FXIa enzymatic activity (cleavage of the fluorescent peptide substrate BS-2494): ~0.16 nM
  IC50, inhibition of the enzymatic activity of full length human FXIa (cleavage of a fluorescently labelled peptide): 0.16 nM
